Consider 2 molecules from patent publication US20150203579A1 (Regeneron, published 2015).

Assay [1] has as its target T1, human PD-1 dimer (human PD-1-mFc or human PD-1-hFc) (human, UniProt Q15116 25-170).
T1 construct: also called hPD-1-mFc; hPD1-hFc
Briefly: SPR, mAb captured, 25C. Background: In SPR one partner is held on a chip, and binding of the other changes the refractive index at the surface.

For assay [2], the target named is T1, human PD-1 dimer (human PD-1-mFc or …). Kind of assay: SPR, mAb captured, 37C.
Assay [3] addresses T2, recombinant human PD-1 expressed with a C-terminal myc-myc-hexahistidine tag (human).
T2 construct: monomeric; also called hPD-1-MMH; human PD-1-MMH
Briefly: SPR, mAb captured, 37C.

For assay [4], the target named is T3, recombinant cynomolgus monkey PD-1 expressed with a C-terminal myc-myc-hexahistidine tag (cynomolgus monkey (Macaca fascicularis)).
T3 construct: monomeric; also called MfPD-1-MMH
T3 chain: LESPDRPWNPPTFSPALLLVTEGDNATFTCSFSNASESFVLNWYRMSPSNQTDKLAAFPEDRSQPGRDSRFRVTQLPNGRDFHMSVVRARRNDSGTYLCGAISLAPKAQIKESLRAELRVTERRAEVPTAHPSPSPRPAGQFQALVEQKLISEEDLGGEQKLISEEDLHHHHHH
Kind of assay: SPR, mAb captured, 25C.

Assay [5] addresses T3, recombinant cynomolgus monkey PD-1 …. Kind of assay: SPR, mAb captured, 37C.

T1 sequence (Q15116 25-170 C93S): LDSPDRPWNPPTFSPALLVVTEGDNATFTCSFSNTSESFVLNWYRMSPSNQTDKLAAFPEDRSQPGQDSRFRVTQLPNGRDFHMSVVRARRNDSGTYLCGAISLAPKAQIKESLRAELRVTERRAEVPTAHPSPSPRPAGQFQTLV
T2 sequence (chain, as listed by the source limits assumed): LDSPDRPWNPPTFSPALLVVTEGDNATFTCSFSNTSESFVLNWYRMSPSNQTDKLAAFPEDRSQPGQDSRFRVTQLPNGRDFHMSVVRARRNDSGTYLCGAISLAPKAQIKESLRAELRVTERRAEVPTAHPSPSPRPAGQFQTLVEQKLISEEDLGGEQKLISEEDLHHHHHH

B1: H4H7795N2 (antibody, human IgG4 S228P, kappa, V domains shown)
VH: EVQVVESGGGLVEPGRSLRLSCKASGFTFDDYAMHWVRQTPGKALEWVSGISWSGNNIGYADSVKGRFTISKDDAKNSLYLQMNSLRPEDTALYYCTKDISITGTLDAFDVWGQGTMVTVSS
VL: DIQMTQSPISVSASVGDRVTITCRASQGISNWLAWYQQKPGIAPKLLIYSASSLQSGVPSRFRGSGSGTDFTLTIGSLQPEDFATYYCQQAHSFPLTFGGGTKVEIKR
As for B1, the Kd (commonly a measure of binding affinity in units of concentration) in assay [1] came out at 0.615 nM; in assay [2] it was 1.65 nM; in assay [3], 104 nM; in assay [4], 22.4 nM; in assay [5], 88.3 nM. The koff (in general, a measure of how fast the partners let go of each other) is 9.25e-05 s⁻¹ in assay [1]; 0.000264 s⁻¹ in assay [2]; 0.00664 s⁻¹ in assay [3]; 0.00148 s⁻¹ in assay [4]; 0.00689 s⁻¹ in assay [5]. The on-rate constant (kon) (usually the rate constant with which the complex forms) in assay [1] was 150000 M⁻¹ s⁻¹; in assay [2], 160000 M⁻¹ s⁻¹; in assay [3], 64100 M⁻¹ s⁻¹; in assay [4], 65900 M⁻¹ s⁻¹; in assay [5], 78000 M⁻¹ s⁻¹. The t½ (in general, how long it takes for the measured level to halve) in assay [1] was 125 min; in assay [2], 44 min; in assay [3] it was 1.7 min; in assay [4], 8 min; in assay [5] it was 1.7 min.

B2: H4H7798N (antibody, human IgG4 S228P, kappa, V domains shown)
VH: EVQLLESGGVLVQPGGSLRLSCAASGFTFSNFGMTWVRQAPGKGLEWVSGISGGGRDTYFADSVKGRFTISRDNSKNTLYLQMNSLKGEDTAVYYCVKWGNIYFDYWGQGTLVTVSS
VL: DIQMTQSPSSLSASVGDSITITCRASLSINTFLNWYQQKPGKAPNLLIYAASSLHGGVPSRFSGSGSGTDFTLTIRTLQPEDFATYYCQQSSNTPFTFGPGTVVDFRR
As for B2, the equilibrium dissociation constant (Kd) is 0.122 nM in assay [1]; 0.175 nM in assay [2]; 7.48 nM in assay [3]; 3.86 nM in assay [4]; 10.5 nM in assay [5]. Also, the koff in assay [1] is 5.4e-05 s⁻¹; in assay [2], 0.000115 s⁻¹; in assay [3], 0.0017 s⁻¹; in assay [4] it was 0.000551 s⁻¹; in assay [5], 0.00223 s⁻¹. For the same molecule, the kon in assay [1] came to 441000 M⁻¹ s⁻¹; in assay [2] it was 660000 M⁻¹ s⁻¹; in assay [3] it was 227000 M⁻¹ s⁻¹; in assay [4] it was 143000 M⁻¹ s⁻¹; in assay [5], 213000 M⁻¹ s⁻¹. For the same molecule, the t½ worked out at 214 min in assay [1]; 100 min in assay [2]; 7 min in assay [3]; 21 min in assay [4]; 5 min in assay [5].
